Entries after “also recorded” stand apart in the source; their conditions may differ.
B1: CD36 FP298-439: CD36-GST fusion protein which does not bind TSP-1 (protein)
chain: KAFASPVENPDNYCFCTEKIISKNCTSYGVLDISKCKEGRPVYISLPHFLYASPDVSEPIDGLNPNEEEHRTYLDIEPITGFTLQFAKRLQVNLLVKPSEKIQVLKNLKRNYIVPILWLNETGTIGDEKANMFRSQVTGKIN
modifications: left off: a dimerising Fc or GST
B2: HRGP: Histidine-rich glycoprotein, plasma protein purified from human plasma by lys-plasminogen affinity chromatography (protein)
chain: VSPTDCSAVEPEAEKALDLINKRRRDGYLFQLLRIADAHLDRVENTTVYYLVLDVQESDCSVLSRKYWNDCEPPDSRRPSEIVIGQCKVIATRHSHESQDLRVIDFNCTTSSVSSALANTKDSPVLIDFFEDTERYRKQANKALEKYKEENDDFASFRVDRIERVARVRGGEGTGYFVDFSVRNCPRHHFPRHPNVFGFCRADLFYDVEALDLESPKNLVINCEVFDPQEHENINGVPPHLGHPFHWGGHERSSTTKPPFKPHGSRDHHHPHKPHEHGPPPPPDERDHSHGPPLPQGPPPLLPMSCSSCQHATFGTNGAQRHSHNNNSSDLHPHKHHSHEQHPHGHHPHAHHPHEHDTHRQHPHGHHPHGHHPHGHHPHGHHPHGHHPHCHDFQDYGPCDPPPHNQGHCCHGHGPPPGHLRRRGPGKGPRPFHCRQIGSVYRLPPLRKGEVLPLPEANFPSFPLPHHKHPLKPDNQPFPQSVSESCPGKFKSGFPQVSMFFTHTFPK

Columns and labels:
[1] = molecular target: T1, 125I-TSP-1 binding to HRGP (Homo sapiens, UniProt P07996); assay: Solid phase binding assay, competition with CD36 fusion proteins; settings: increasing concentrations of fusion protein
T1 construct: TSP-1 was purified from human platelet releasate; from tissue; host or cells: TSP-1 from human platelet releasate; HRGP from human plasma
T1 sequence (P07996 19-1170): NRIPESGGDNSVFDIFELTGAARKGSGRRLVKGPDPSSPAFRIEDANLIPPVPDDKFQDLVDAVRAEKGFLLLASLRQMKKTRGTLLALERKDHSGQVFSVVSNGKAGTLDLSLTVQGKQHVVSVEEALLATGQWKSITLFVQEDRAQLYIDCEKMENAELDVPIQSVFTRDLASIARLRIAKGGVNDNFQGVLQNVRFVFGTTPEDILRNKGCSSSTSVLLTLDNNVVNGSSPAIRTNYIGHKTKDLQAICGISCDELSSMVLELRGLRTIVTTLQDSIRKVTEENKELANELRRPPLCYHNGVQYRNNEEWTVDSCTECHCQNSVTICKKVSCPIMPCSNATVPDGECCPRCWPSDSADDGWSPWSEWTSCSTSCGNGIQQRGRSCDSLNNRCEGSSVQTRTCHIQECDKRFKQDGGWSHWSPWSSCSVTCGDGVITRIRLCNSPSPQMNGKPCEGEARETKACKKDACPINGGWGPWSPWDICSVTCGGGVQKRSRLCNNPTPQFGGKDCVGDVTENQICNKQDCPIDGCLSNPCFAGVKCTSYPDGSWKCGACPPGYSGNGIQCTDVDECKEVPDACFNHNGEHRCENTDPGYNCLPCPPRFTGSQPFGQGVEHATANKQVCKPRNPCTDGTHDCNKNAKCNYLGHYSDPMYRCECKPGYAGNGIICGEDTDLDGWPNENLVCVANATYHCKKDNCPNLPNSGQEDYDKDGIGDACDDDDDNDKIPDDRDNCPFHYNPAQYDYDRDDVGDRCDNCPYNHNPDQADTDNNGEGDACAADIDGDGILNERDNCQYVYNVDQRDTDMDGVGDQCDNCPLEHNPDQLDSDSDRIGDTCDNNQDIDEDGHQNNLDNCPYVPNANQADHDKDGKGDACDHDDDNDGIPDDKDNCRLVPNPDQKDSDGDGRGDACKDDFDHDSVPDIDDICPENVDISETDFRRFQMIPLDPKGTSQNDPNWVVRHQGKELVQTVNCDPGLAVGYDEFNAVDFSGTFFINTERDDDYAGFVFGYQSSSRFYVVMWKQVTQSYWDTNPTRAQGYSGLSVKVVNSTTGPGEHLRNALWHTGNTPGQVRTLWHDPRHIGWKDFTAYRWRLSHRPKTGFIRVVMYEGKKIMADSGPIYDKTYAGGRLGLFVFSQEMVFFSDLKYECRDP
Experimental: Solid phase binding assays were performed as described (18). Briefly, HRGP in carbonate buffer was immobilized on 96-well strips (Immulon-4 Remove-a-well, Dynatech Laboratories Inc., Burlington, Mass., USA) overnight at 4° C. After blocking with 1% BSA, ^125I-TSP-1 was incubated in the presence of varying concentrations of CD36-FP in triplicate, and bound radioactivity was quantified on a gamma counter. Non-specific binding was determined by carrying out binding in the presence of excess unlabeled ligand.
TSP-1 binding to HRGP: competition with CD36.

[2] = test system: Human dermal microvascular EC (HMVEC); assay: Tube formation assay on Matrigel; type: cell-based
Experimental: Tube Formation Assay. Early passage (P2 or P3) HMVEC in 0.2% MVGS were grown on 150 μl of Matrigel (Becton Dickinson, Bedford, Mass., USA) at 3×10^4 cells per well of 48-well plates. Reagents were added and cells were incubated at 5% CO2, 37° C. for 24 hours then photographed. Images were scanned and number of branched structures was counted using Scion Image software (Frederick, Md., USA).
HRGP inhibits the anti-angiogenic effect of TSP-1 in vitro. Microvascular EC were grown on Matrigel under low serum concentrations (0.2%) in the presence of bFGF (2 ng/ml), conditions which are known to induce tube formation. […] The anti-angiogenic activity of TSP-1 was abolished by the addition of HRGP (15 nM), which restored the ability of the EC to form tubular structures. (c).

CD36 null mice = assay: In vivo corneal angiogenesis assay, CD36 null mice
Experimental: (§1) FIG. 3. HRGP abrogates the effect of endogenous TSP in the corneal angiogenesis assay. Pellets containing bFGF at various doses with and without HRGP (50 ng) were implanted into the corneas of wild type C57BL/6 (closed symbols) or CD 36 null mice (open symbols), and area of neovascularization was measured after five days. HRGP (--●--) augmented the dose-dependent effect of bFGF (—▪—) in the wild type mice (p=0.0004 by ANOVA). In CD36 null mice, there was an enhanced dose response to bFGF (—□—) (p=0.01), but no effect seen with the addition of HRGP (--◯--). Results represent mean±SE of>6 replicates.
(§2) In vivo corneal angiogenesis assays. Pellets composed of hydron (Hydro Med Sciences, Cranbury, N.J.) and sucralfate (Teva Pharmaceuticals, North Wales, Pa.) were mixed with proteins or growth factors, and were prepared and implanted into the comeas of C57B1/6 mice as described (38). After 5 days, eyes were viewed under a dissecting microscope and photographed with a Sony DKC-1000 digital camera. The area of neovascularization was calculated by measuring vessel length from limbus towards the pellet and number of clock hours of vascularization as described (39, 40). Studies were approved by the Institutional Animal Use Committee.
In fact, the dose response curve of bFGF in wild type mice in the presence of HRGP was similar to that seen with bFGF alone in the CD36 null mice. […]

TSP-1 = TSP-1 (Homo sapiens, UniProt P07996); settings: saturable, reversible binding; read-out: affinity of HRGP binding to TSP-1; cited from earlier work
Chain of TSP-1 (P07996 19-1170): as above

wild type C57BL/6 mice = assay: In vivo corneal angiogenesis assay, wild type mice
Experimental: as §1, §2
In a second type of in vivo experiment, hydron/sucralfate pellets containing bFGF, TSP-1, and/or HRGP were implanted in the corneas of C57B1/6 mice. […] Similar results were obtained when HRGP was added in a separate pellet from bFGF and TSP-1.
In fact, the dose response curve of bFGF in wild type mice in the presence of HRGP was similar to that seen with bFGF alone in the CD36 null mice. […] The resulting pellet was removed after 10 days, processed and stained for histologic examination and blood vessel counts. TSP-1 inhibited bFGF-induced blood vessel formation (14±8% of blood vessels/mm^2 seen with bFGF), and that HRGP inhibited the anti-angiogenic effect of TSP-1 (80±13%).

[3] = test system: Human dermal microvascular EC (HMVEC); assay: Endothelial cell chemotaxis assay (modified Boyden chamber); type: cell-based
Experimental: Endothelial Cell (EC) chemotaxis assays were performed as described using a modified Boyden chamber with 8 μm gelatin-coated membranes (22). Briefly, confluent flasks of HMVEC were grown in 0.1% MVGS overnight and plated at 3×10^4 cells per well on a gelatinized porous membrane (Osmonics, Minnetonka, Minn., USA). Reagents were added to wells and cells were allowed to migrate at 5% CO2, 37° C. for 4 hours. Membranes were stained and the number of cells migrating was counted. Results were expressed as the percentage of maximum cells migrating towards bFGF (38-113 cells/10 high power fields) minus the number of cells migrating in the absence of bFGF (4-13cells/10 hpf).
HRGP inhibits the anti-chemotactic effect of TSP-1. Because the type I repeat also mediates the interaction of TSP-1 with HRGP, we studied the effect of HRGP on angiogenesis. EC migration towards bFGF was measured using a modified Boyden chamber with an 8 μm gelatin-coated membrane in the presence and absence of TSP-1 (2 nM) and increasing concentrations of HRGP (0-100 nM). Data from 3 separate experiments are expressed as a percentage of migration in the presence of bFGF alone. We measured migration of CD36-expressing microvascular EC towards bFGF. The addition of TSP-1 inhibited bFGF-induced migration of EC (approx. 30%±3% of control 100% value without added TSP-1). […]

C57B1/6 mice = assay: In vivo subcutaneous Matrigel plug assay
Experimental: In vivo subcutaneous Matrigel plug assays were performed as described (23). Briefly, 500 μl of Matrigel mixed with proteins or growth factors was injected subcutaneously near the abdominal midline of C57B1/6 mice. Gels were removed after 10 days, fixed in 1% paraformaldehyde, embedded in paraffin, sectioned, and stained with hematoxylin and eosin. Immunohistochemistry was performed on unstained sections using an anti-human von Willebrand factor (vWF) IgG (Dako, Glostrup, Denmark) or isotype-matched control (Sigma) and a biotin-streptavidin-peroxidase antibody and development system (Vector Laboratories, Burlingame, Calif.) as described (24) and counterstained with Mayer's hematoxylin (ImmunoGenex, San Ramon, Calif., USA). After scanning, the degree of angiogenesis was determined by counts of vWF-positive blood vessels using Scion Image. For breast tissue, frozen sections of freshly obtained human breast carcinoma were incubated with rabbit antibody to HRGP or CSVTCG or murine monoclonal antibody to TSP, or isotype-matched controls (Sigma), and developed as above. These studies were approved by the Institutional Animal Use Committee.
Matrigel mixed was injected subcutaneously into the midline of mice and resulting plugs were harvested after 10 days, fixed, and paraffin embedded, sectioned, stained with. hematoxylin and eosin, and photographed at 200× magnification. […]

| Molecule | inhibition of 125I-TSP-1 binding to immobilized HRGP [1] | effect on the anti-angiogenic activity of TSP-1 (tube formation) ([2]; HRGP 15 nM added to TSP-1 2 nM + bFGF 2 ng/ml) | induction of tube formation ([2]; agent alone, low serum, Matrigel) | Area of Neovascularization (mm^2) ± SE (CD36 null mice; CD36 −/− mouse, corneal pellet, 5 days) [mm^2] | effect on sensitivity to low concentrations of bFGF (CD36 null mice; HRGP 50 ng, CD36 null mice) | Kd (TSP-1) [nM] | effect on angiogenic activity (dose response) of bFGF (wild type C57BL/6 mice; HRGP 50 ng, bFGF 2.5 to 10 ng, wild type mice, p=0.0004 by ANOVA) | Area of Neovascularization (mm^2) ± SE (wild type C57BL/6 mice; Wild type mouse, corneal pellet, 5 days) [mm^2] | induction of corneal angiogenesis by agent alone (wild type C57BL/6 mice; pellet without bFGF) | EC migration towards bFGF, percentage of control ([3]; TSP-1 2 nM plus 10 nM HRGP) | EC migration towards bFGF, percentage of control ([3]; TSP-1 2 nM plus 100 nM HRGP) | blood vessels/mm^2, % of that seen with bFGF (C57B1/6 mice; HRGP added to bFGF + TSP-1 in Matrigel, 10 days) [%] | angiogenesis in Matrigel plug (histology) (C57B1/6 mice; plugs harvested after 10 days, representative images of 4 experiments) |
| --- | --- | --- | --- | --- | --- | --- | --- | --- | --- | --- | --- | --- | --- |
| B1 | had no effect |  |  |  |  |  |  |  |  |  |  |  |  |
| B2 |  | abolished | did not directly induce tube formation | 0.02 ± 0.004 | did not effect sensitivity; also recorded: no effect | 7 | significantly increased; also recorded: augmented | 0 ± 0 | did not induce angiogenesis | approx. 30%±15% | approx. 75%±15% | 80±13 | had no effect |

Source: US20010041670A1, “Thrombospondin-binding region of histidine-rich glycoprotein and method of use” (priority 1999, published 2001)
